{
  "source": "paper doi:10.1101/2020.03.10.986331",
  "data": [
    {"molecular_target": "SPPV14ΔC31 (sheeppoxvirus SPPV14 residues 1-145, 31 residue C-terminal deletion) (sheeppoxvirus)", "test": "ITC", "units": {"Kd": "nM"}, "values": [
      {"molecule": "Hrk BH3 motif peptide (human, 26-mer)", "Kd": 39},
      {"molecule": "Bad BH3 motif peptide (human)", "Kd": 5200},
      {"molecule": "Bax BH3 motif peptide (human, 28-mer)", "Kd": 26},
      {"molecule": "VPGRLAEVCAVLLRLGDELEMIRPSV", "note": "[Bok BH3 motif peptide (human, residues 59-84)]", "Kd": 7600}
    ]}
  ]
}
